{"source": "patent US20080219970A1", "about": "(published 2008)", "binders": {"B1": {"name": "Ir-CPI (Ixodes ricinus Contact Phase Inhibitor), recombinant, without its peptide signal (other)", "chain": "ANHKGRGRPAKCKLPPDDGPCRARIPSYYFDRKTKTCKEFMYGGCEGNENNFENITTCQEECRAKKV", "notes": "Immobilized on a CM5 chip by amine coupling for SPR; also called recombinant Ir-CPI"}}, "key": {"kallikrein": {"target": "T1, kallikrein (UniProt P03952 20-638)", "T1 construct": "also called plasma kallikrein", "T1 sequence (P03952 20-638 limits assumed)": "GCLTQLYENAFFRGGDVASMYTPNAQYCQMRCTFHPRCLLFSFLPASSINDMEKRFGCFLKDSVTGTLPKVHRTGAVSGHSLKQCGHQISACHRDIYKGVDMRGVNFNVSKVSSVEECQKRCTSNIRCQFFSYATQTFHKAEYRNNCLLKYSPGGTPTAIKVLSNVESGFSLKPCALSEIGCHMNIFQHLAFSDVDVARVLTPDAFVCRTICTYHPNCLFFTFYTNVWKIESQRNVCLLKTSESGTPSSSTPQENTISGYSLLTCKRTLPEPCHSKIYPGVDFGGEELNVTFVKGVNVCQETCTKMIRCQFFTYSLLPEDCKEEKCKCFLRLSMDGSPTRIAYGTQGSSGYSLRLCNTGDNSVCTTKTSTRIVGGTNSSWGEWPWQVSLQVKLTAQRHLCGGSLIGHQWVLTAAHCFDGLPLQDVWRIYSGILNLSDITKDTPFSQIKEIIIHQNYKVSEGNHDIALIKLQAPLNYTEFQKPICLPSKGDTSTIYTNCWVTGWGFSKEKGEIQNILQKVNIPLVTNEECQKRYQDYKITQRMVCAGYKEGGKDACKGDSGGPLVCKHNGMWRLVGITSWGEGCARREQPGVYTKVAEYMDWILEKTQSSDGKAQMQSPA", "assay": "SPR kinetics (BIAcore 3000), Ir-CPI immobilized at about 200 RU, analyte at 6 concentrations from 5 nM to 300 nM", "experimental": "Interaction kinetics were determined, for each analyte, with 6 different concentrations (from 5 nM to 300 nM). Binding data were analyzed using BIA evaluation software to determine the kinetic constants.\nThe ability of Ir-CPI to bind a (co)factor of coagulation or fibrinolysis was evaluated by surface plasmon resonance. […] Moreover, the kinetics of interaction between Ir-CPI and the four target factors (XIIa, XIa, plasmin and kallikrein) were measured after a new immobilization of Ir-CPI. In experiments to determine the binding kinetics, the quantity of immobilized Ir-CPI was deliberately kept at a low level (approximately 200 RU) in order to avoid problems where the reaction rate is limited by mass-transport. […] Interaction kinetics were determined for each analyte, at 6 different concentrations (from 5 nM to 300 nM). The kinetic data obtained were individually processed with BIA evaluation software in order to determine the kinetics constants. […] FIG. 9 represents sensorgrams for interactions between coagulation factors and immobilized Ir-CPI measured by surface plasmon resonance. Ir-CPI was immobilized onto the surface of a sensor chip CM5 at level of 1500 resonance units (RUs). Contact factors (100 nM final concentration) were injected at a flow rate of 70 μl/min in HBS buffer, and association was monitored. After return to buffer flow, dissociation was monitored during 84 s. […]"}, "plasminogen": {"target": "plasminogen (UniProt P00747 20-810, limits assumed)", "sequence (P00747 20-810 limits assumed)": "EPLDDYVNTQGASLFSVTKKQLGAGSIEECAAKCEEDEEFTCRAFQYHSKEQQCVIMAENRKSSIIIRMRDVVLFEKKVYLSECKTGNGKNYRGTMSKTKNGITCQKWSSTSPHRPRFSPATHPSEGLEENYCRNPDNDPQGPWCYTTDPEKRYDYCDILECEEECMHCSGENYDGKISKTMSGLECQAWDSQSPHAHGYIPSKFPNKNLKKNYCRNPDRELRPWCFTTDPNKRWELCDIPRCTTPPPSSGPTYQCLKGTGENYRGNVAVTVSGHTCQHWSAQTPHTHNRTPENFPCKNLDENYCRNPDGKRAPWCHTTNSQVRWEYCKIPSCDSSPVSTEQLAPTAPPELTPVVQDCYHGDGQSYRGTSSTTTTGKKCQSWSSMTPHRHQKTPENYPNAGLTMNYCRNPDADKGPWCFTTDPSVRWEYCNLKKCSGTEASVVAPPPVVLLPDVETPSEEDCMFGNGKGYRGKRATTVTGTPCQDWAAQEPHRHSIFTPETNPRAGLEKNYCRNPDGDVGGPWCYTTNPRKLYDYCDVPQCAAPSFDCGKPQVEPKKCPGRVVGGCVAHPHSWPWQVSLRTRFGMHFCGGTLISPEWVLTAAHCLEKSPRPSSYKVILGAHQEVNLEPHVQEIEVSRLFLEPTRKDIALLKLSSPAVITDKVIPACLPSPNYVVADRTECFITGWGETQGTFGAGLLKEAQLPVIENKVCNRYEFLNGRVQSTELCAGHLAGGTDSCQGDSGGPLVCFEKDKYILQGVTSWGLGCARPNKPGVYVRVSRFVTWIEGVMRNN", "assay": "SPR (BIAcore 3000), Ir-CPI immobilized on CM5 chip, factor injected as analyte", "experimental": "(§1) The interaction between Ir-CPI and coagulation or fibrinolytic factors was monitored using a BIAcore 3000 instrument (BIAcore AB, Sweden). Ir-CPI (15 μM) was immobilized on the surface of a CM5 sensor chip in 10 mM acetate buffer, pH 5.0, by the amine coupling procedure according to the manufacturer's instructions. 1500 resonance units (RU) of immobilized Ir-CPI were used for the assay. To subtract the non-specific component from the apparent binding response, a blank flow cell was prepared using the same immobilizing procedure without Ir-CPI. Binding analyses were carried out using HBS buffer (HEPES10 mM, NaCl 150 mM, EDTA 3 mM; pH 7.4 with 0.005% surfactant P20) as running buffer at 25° C. 100 μl of each analyte (100 nM) was injected on the sensor chip at a flow rate of 70 μl/min. Association was monitored during an 84 s injection of analyte. Dissociation was monitored for 3 min after return to the running buffer.\n(§2) The ability of Ir-CPI to bind a (co)factor of coagulation or fibrinolysis was evaluated by surface plasmon resonance. […] Moreover, the kinetics of interaction between Ir-CPI and the four target factors (XIIa, XIa, plasmin and kallikrein) were measured after a new immobilization of Ir-CPI. In experiments to determine the binding kinetics, the quantity of immobilized Ir-CPI was deliberately kept at a low level (approximately 200 RU) in order to avoid problems where the reaction rate is limited by mass-transport. […] Interaction kinetics were determined for each analyte, at 6 different concentrations (from 5 nM to 300 nM). The kinetic data obtained were individually processed with BIA evaluation software in order to determine the kinetics constants."}, "t-PA": {"target": "t-PA (UniProt P00750 36-562)", "sequence (P00750 36-562 limits assumed)": "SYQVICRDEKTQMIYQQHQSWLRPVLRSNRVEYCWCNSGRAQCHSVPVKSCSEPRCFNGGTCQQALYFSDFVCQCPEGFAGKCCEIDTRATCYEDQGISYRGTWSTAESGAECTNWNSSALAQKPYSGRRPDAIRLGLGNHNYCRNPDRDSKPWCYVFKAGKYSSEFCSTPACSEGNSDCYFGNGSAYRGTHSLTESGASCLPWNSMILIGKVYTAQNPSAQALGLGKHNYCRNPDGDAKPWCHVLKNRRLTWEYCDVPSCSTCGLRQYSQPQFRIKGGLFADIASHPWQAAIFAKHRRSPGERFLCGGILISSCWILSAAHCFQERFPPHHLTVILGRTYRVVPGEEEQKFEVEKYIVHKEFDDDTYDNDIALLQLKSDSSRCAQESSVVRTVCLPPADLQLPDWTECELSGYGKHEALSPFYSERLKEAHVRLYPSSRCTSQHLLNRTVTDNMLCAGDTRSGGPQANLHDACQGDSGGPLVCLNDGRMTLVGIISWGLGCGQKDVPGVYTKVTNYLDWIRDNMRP", "assay": "SPR (BIAcore 3000), Ir-CPI immobilized on CM5 chip, factor injected as analyte", "experimental": "as §1, §2"}, "factor VIIa": {"target": "T2, factor VIIa (UniProt P08709 61-466)", "T2 construct": "also called fVIIa; FVIIa", "T2 sequence (looked up)": "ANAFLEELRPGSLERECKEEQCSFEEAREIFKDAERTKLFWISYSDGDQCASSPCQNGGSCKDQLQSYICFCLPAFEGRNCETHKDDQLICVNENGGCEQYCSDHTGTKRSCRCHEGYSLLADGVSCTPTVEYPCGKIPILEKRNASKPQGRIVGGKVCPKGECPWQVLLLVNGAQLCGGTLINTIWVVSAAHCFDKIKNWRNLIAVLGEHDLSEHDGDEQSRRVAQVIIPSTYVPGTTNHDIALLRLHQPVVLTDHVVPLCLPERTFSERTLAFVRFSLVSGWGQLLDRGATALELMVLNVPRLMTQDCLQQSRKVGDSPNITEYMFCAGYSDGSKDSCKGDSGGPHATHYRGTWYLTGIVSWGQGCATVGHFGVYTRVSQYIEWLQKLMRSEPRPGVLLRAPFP", "assay": "SPR (BIAcore 3000), Ir-CPI immobilized on CM5 chip, factor injected as analyte", "experimental": "as §1, §2"}, "factor IXa": {"target": "T3, factor IXa (UniProt P00740 47-191; P00740 227-461)", "T3 construct": "read as fIXa; also called FIXa", "assay": "SPR (BIAcore 3000), Ir-CPI immobilized on CM5 chip, factor injected as analyte", "experimental": "as §1, §2"}, "thrombin": {"target": "thrombin (UniProt P00734 328-622)", "assay": "SPR (BIAcore 3000), Ir-CPI immobilized on CM5 chip, factor injected as analyte", "experimental": "as §1, §2"}, "[1]": {"target": "T4, high molecular weight kininogen (UniProt P01042 19-644)", "T4 construct": "also called HMWK", "T4 sequence (looked up)": "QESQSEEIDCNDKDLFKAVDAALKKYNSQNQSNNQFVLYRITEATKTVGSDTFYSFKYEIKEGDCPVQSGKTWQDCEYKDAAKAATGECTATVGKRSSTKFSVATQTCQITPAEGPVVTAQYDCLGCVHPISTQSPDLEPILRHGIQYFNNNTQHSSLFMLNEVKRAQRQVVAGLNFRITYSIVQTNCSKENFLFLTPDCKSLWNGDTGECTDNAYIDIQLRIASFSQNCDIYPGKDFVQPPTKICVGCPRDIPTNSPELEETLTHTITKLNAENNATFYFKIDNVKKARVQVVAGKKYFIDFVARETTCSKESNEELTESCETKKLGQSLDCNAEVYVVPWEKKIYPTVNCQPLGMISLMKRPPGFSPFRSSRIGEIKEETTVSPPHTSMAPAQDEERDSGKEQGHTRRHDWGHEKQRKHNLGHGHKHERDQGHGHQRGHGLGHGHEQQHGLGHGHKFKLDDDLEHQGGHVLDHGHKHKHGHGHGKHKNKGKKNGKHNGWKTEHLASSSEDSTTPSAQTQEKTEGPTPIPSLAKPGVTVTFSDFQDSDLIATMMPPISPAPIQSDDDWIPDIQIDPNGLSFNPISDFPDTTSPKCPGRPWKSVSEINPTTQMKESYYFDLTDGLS", "assay": "SPR (BIAcore 3000), Ir-CPI immobilized on CM5 chip, factor injected as analyte", "experimental": "as §1, §2"}, "factor X": {"target": "T5, factor X (UniProt P00742 41-488)", "T5 construct": "also called fX", "assay": "SPR (BIAcore 3000), Ir-CPI immobilized on CM5 chip, factor injected as analyte", "experimental": "as §1, §2"}, "factor IX": {"target": "T6, factor IX (UniProt P00740 47-461)", "T6 construct": "also called fIX", "assay": "SPR (BIAcore 3000), Ir-CPI immobilized on CM5 chip, factor injected as analyte", "experimental": "as §1, §2"}}, "data": [{"binder": "B1", "values": [{"measurement": "Kd", "setting": "kallikrein", "value": 200, "unit": "nM"}, {"measurement": "binding result", "setting": "plasminogen", "value": "no binding (tested: 100 nM)"}, {"measurement": "binding result", "setting": "t-PA", "value": "no binding (tested: 100 nM)"}, {"measurement": "binding result", "setting": "factor VIIa", "value": "no binding (tested: 100 nM)"}, {"measurement": "binding result", "setting": "factor IXa", "value": "no binding (tested: 100 nM)"}, {"measurement": "binding result", "setting": "thrombin", "value": "no binding (tested: 100 nM)"}, {"measurement": "binding result", "setting": "[1]", "value": "no binding (tested: 100 nM)"}, {"measurement": "binding result", "setting": "factor X", "value": "no binding (tested: 100 nM)"}, {"measurement": "binding result", "setting": "factor IX", "value": "no binding (tested: 100 nM)"}]}]}
